Tests used:
[1] = target: T1, Recombinant mouse ribonucleotide reductase R1 protein (mouse, UniProt P07742 1-792); assay: BIAcore biosensor, mouse R1 protein alone at 0.1 mg/ml over immobilized Sml1p, prolonged injection, bulk effect not subtracted
T1 construct: also called mouse R1 protein
T1 sequence (looked up): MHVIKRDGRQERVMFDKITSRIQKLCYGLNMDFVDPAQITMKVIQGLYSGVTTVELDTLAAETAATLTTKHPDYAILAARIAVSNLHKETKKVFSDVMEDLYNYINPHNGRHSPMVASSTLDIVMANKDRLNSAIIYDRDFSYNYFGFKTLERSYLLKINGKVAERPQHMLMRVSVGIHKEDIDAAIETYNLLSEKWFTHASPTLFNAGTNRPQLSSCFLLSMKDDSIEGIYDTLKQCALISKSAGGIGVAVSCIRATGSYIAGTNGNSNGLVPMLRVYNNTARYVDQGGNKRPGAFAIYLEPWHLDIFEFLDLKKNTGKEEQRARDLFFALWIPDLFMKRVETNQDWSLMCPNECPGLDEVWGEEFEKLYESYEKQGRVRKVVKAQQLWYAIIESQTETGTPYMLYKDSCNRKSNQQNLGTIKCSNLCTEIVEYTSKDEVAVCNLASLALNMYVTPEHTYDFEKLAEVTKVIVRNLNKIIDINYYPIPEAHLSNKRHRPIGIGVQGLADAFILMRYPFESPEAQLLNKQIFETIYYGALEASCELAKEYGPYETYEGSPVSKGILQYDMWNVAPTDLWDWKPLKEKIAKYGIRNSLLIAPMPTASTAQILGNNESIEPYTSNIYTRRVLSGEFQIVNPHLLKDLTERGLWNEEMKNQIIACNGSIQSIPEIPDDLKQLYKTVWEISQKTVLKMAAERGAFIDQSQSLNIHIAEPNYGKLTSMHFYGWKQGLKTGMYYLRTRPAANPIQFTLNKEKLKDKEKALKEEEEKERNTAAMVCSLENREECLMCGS

[2] = target: T2, mouse RNR (Mus musculus, UniProt P07742); assay: in vitro mouse ribonucleotide reductase CDP assay; format: biochemical; settings: 300 fold molar excess of Sml1p (36 μg), 1 μg R1, increasing R2; dependent on R1 to R2 ratio
T2 construct: made in house; host or cells: E. coli BL21 (DE3)pLysS, pET3a
T2 sequence (P07742 1-792): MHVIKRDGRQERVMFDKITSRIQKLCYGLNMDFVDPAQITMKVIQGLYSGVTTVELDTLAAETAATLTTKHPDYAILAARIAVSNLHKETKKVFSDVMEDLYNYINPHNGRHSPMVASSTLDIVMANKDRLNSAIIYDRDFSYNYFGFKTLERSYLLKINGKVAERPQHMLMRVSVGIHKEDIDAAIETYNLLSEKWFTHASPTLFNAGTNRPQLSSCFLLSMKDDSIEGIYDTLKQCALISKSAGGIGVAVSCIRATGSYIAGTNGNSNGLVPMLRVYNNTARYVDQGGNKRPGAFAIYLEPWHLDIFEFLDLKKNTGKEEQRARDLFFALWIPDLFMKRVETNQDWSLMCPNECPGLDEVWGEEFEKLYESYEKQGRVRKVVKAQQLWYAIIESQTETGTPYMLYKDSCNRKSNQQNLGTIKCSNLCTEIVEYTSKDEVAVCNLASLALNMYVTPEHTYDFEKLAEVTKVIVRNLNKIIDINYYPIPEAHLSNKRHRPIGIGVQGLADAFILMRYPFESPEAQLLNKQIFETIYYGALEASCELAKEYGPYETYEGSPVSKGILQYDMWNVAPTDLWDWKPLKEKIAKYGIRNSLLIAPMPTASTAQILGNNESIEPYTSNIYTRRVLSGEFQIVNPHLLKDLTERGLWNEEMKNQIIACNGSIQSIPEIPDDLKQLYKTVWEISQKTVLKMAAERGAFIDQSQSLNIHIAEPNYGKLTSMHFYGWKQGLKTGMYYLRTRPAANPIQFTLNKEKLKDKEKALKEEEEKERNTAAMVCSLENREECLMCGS
Procedure: FIG. 13 Inhibition of mouse RNR by the Sml1p. A series of tubes containing mouse RNR (1 μg of R1 protein and the indicated amounts of R2 protein) were incubated at 37° C. for 30 minutes as described in FIG. 9 in the absence (ã) or in the presence of 36 μg of Sml1p (o).
Inhibition of mouse ribonucleotide reductase by the Sml1protein. The effects of Sml1 protein on pure recombinant mouse ribonucleotide reductase were tested in a CDP assay in the presence of ATP as a positive effector (FIG. 13). In the figure, RNR activity in the presence of a fixed amount of R1 protein, and in the presence or absence of a 300 fold molar excess of Sml1p, are plotted against increasing concentrations of the R2 protein.

B1: Recombinant yeast Sml1 protein (other)
chain: MQNSQDYFYAQNRCQQQQAPSTLRTVTMAEFRRVPLPPMAEVPMLSTQNSMGSSASASASSLEMWEKDLEERLNSIDHDMNNNKFGSGELKSMFNQGKVEEMDF
notes: Immobilized on the BIAcore chip in the biosensor experiments; also called YML058W product
binding result [1]: binds

B2: Sml1p: 104 amino acid yeast protein encoded by YML058w (SML1) that binds Rnr1 and inhibits ribonucleotide reductase; recombinant, expressed in E. coli (protein)
chain: MQNSQDYFYAQNRCQQQQAPSTLRTVTMAEFRRVPLPPMAEVPMLSTQNSMGSSASASASSLEMWEKDLEERLNSIDHDMNNNKFGSGELKSMFNQGKVEEMDF
inhibition of mouse RNR compared with yeast RNR [2]: less pronounced

— patent US7125658B2, “Small protein that interacts with a ribonucleotide reductase subunit and uses thereof” (The Trustees of Columbia University in the City of New York, priority 1998, dated 2006)
